Measured values as given in patent US20260070983A1.

Key:
human PD-1 (human) = human PD-1 (human) (UniProt Q15116); test: cell-based or functional assay
human PD-1 ECD (human) = test: SPR, 37 °C
Chain of human PD-1 ECD (human) (Q15116 25-170): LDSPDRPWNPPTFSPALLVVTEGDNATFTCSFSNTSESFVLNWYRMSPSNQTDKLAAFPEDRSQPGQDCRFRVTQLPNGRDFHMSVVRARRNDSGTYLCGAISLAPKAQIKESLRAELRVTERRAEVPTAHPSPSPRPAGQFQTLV

Chain of human PD-1 (human) (Q15116 25-288): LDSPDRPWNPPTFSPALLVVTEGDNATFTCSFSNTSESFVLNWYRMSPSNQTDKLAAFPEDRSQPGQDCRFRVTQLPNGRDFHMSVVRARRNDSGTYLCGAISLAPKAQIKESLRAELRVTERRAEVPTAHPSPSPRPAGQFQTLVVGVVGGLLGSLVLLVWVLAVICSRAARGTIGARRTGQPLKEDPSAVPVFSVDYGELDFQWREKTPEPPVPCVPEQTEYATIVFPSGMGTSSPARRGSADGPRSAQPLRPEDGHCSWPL

% ADCC Activated T cells, mean (human PD-1 (human)): 3.3% | % ADCC PBMC, mean (human PD-1 (human)): 0.2% | % Inhibition Proliferation, mean (SEB assay) (human PD-1 (human)): 36.9% | % PD-1 Expression Inhibition, mean (SEB assay) (human PD-1 (human)): 50.8% | % T cell Proliferation Inhibition, mean (SEB assay) (human PD-1 (human)): 56.5% | Kd (human PD-1 ECD (human)): 2.3 nM
B1: G2 IgG1 mAb (antibody, INN chains, looked up, V domains shown)
VH: QVQLVQSGAEVKKPGASVKVSCKVSGYSLSKYDMSWVRQAPGKGLEWMGIIYTSGYTDYAQKFQGRVTMTEDTSTDTAYMELSSLRSEDTAVYYCATGNPYYTNGFNSWGQGTLVTVSS
VL: DIQMTQSPSSLSASVGDRVTITCQASQSPNNLLAWYQQKPGKAPKLLIYGASDLPSGVPSRFSGSGSGTDFTLTISSLQPEDFATYYCQNNYYVGPVSYAFGGGTKVEIK
modifications: IgG1
